The values that follow come from article doi:10.1101/2024.01.16.575844.

The target of this assay is C3b (human) (UniProt P01024). Nature of the assay: radioligand binding.
Chain of UniProt P01024 (P01024 whole entry, looked up): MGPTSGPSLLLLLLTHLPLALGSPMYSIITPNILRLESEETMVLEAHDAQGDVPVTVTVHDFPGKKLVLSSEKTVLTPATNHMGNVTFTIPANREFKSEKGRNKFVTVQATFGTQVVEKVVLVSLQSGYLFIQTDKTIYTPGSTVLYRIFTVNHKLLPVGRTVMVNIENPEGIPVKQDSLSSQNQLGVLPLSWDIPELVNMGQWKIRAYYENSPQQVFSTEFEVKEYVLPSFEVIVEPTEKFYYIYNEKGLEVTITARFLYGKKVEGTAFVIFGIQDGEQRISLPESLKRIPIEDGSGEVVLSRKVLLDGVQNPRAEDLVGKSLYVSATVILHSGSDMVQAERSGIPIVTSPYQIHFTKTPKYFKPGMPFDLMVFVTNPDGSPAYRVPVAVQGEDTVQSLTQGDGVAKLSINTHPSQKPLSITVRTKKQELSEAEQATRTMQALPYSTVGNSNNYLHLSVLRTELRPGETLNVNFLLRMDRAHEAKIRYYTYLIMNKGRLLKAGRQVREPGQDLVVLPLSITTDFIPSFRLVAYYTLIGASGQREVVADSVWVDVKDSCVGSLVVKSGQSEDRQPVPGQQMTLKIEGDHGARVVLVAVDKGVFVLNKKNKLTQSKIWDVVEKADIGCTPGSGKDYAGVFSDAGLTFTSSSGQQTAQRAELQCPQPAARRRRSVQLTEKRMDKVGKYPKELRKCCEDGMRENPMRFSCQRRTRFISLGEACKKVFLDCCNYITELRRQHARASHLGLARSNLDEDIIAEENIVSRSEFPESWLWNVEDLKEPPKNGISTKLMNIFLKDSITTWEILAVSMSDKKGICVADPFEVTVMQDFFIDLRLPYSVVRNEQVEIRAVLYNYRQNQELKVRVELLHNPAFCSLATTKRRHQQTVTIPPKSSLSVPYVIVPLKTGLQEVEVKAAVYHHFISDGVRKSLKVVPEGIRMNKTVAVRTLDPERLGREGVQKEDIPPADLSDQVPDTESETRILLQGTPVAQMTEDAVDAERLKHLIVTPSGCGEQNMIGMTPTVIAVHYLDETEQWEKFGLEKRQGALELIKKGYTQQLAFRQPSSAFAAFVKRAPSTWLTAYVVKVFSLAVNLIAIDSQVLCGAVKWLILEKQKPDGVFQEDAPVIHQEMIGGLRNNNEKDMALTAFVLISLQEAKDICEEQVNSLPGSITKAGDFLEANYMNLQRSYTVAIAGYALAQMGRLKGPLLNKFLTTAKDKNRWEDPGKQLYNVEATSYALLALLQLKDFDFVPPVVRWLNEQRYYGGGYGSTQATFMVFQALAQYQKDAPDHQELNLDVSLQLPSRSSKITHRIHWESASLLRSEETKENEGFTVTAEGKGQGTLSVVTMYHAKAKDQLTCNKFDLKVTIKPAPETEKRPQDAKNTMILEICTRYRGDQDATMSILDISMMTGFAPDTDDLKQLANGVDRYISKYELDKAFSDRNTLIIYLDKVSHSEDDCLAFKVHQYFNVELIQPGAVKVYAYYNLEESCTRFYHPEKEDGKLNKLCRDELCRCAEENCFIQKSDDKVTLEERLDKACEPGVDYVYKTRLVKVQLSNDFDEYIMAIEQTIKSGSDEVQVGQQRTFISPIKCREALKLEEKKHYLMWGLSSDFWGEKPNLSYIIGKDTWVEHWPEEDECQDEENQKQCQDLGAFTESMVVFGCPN

For the substance complement factor B (natural protein), the binding in 5 mM EDTA as percent of that in 0.2 mM Mg2+ is 60 to 70%, the percent by which binding in 5 mM Mg2+ exceeds that in 0.02 mM Mg2+ worked out at 50% and the percent inhibition of 125I-labelled factor B binding to C3b-thiol Sepharose turned out to be 100%.
